According to patent US11008402 (dated 2021):
Values joined by “and” are separate entries in the source; they are usually repeats but may differ in a detail not shown here. Equal entries are not always repeated. Where two headings read alike, the source gives them in different places. Each block holds one binder with its values, some of them ahead of it.

Assays:
[1] = target: HER3 (cell surface) (human); test: FACS, A375
[2] = target: HER3-Fc ECD (human); test: ELISA
[3] = target: EGFR ECD (human, UniProt P00533); test: ELISA
[4] = target: EGFR (cell surface) (human, UniProt P00533); test: FACS, FaDu (EGFR and HER3 positive)
[5] = target: CD3 (Jurkat cells) (human, UniProt P07766); test: FACS, Jurkat
CD3 (Jurkat cells), sequence (P07766 23-207): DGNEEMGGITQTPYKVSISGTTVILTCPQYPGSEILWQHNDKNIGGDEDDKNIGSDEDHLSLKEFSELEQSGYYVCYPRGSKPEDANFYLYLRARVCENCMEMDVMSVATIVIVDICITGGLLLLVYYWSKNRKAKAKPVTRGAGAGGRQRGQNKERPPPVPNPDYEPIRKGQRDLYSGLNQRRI

[6] = target: HER3-His ECD (human); test: ELISA
[7] = target: HER3-His ECD (human); test: ELISA; remark: listed apart in the source
[8] = target: HER3 (cell surface) (human); test: FACS, MCF-7
[9] = target: HER3-Fc ECD (human); test: ELISA; remark: listed apart in the source
[10] = target: HER3 (cell surface) (human); test: FACS, MCF-7 (Example 22)
[11] = target: HER3 (cell surface) (human); test: FACS, SKBR-3 (EGFR and HER3 positive)
[12] = target: HER3-His ECD (human); test: ELISA; remark: listed apart in the source
[13] = target: HER3 (cell surface) (human); test: FACS, MCF-7; remark: listed apart in the source

EC50 [1]: 1.19 nM
EC50 [2]: 0.33 nM
B1: scFv3-43-Fc-scTRAIL, HER3 arm (antibody)
chain: QVQLQQSGPGLVKPSQTLSLTCAISGDSVSSNRAAWNWIRQSPSRGLEWLGRTYYRSKWYNDYAQSLKSRITINPDTPKNQFSLQLNSVTPEDTAVYYCARDGQLGLDALDIWGQGTMVTVSSGGGGSGGGGSGGGGSQAGLTQPPAVSVAPGQTASITCGRDNIGSRSVHWYQQKPGQAPVLVVYDDSDRPAGIPERFSGSNYENTATLTISRVEAGDEADYYCQVWGITSDHVVFGGGTKLTVLG

EC50 [3]: 0.19 nM
EC50 [4]: 0.14 nM
B2: Db3-43xhu225-Ig, EGFR arm (antibody)
chain 1: EVQLVESGGGLVQPGGSLRLSCAASGFSLTNYGVHWVRQAPGKGLEWLGVIWSGGNTDYNTPFTSRFTISRDNSKNTLYLQMNSLRAEDTAVYYCARALTYYDYEFAYWGQGTTVTVSSGGGGSQAGLTQPPAVSVAPGQTASITCGRDNIGSRSVHWYQQKPGQAPVLVVYDDSDRPAGIPERFSGSNYENTATLTISRVEAGDEADYYCQVWGITSDHVVFGGGTKLTVLASTKGPSVFPLAPSSKSTSGGTAALGCLVKDYFPEPVTVSWNSGALTSGVHTFPAVLQSSGLYSLSSVVTVPSSSLGTQTYICNVNHKPSNTKVDKKVEPKSCDKTHTCPPCPAPPVAGPSVFLFPPKPKDTLMISRTPEVTCVVVDVSHEDPEVKFNWYVDGVEVHNAKTKPREEQYNSTYRVVSVLTVLHQDWLNGKEYKCKVSNKGLPSSIEKTISKAKGQPREPQVYTLPPSRDELTKNQVSLTCLVKGFYPSDIAVEWESNGQPENNYKTTPPVLDSDGSFFLYSKLTVDKSRWQQGNVFSCSVMHEALHNHYTQKSLSLSPGK
chain 2: QVQLQQSGPGLVKPSQTLSLTCAISGDSVSSNRAAWNWIRQSPSRGLEWLGRTYYRSKWYNDYAQSLKSRITINPDTPKNQFSLQLNSVTPEDTAVYYCARDGQLGLDALDIWGQGTMVTVSSGGGGSDIQLTQSPSFLSASVGDRVTITCRASQSIGTNIHWYQQKPGKAPKLLIKYASESISGVPSRFSGSGSGTEFTLTISSLQPEDFATYYCQQNNNWPTTFGAGTKLEIKRTVAAPSVFIFPPSDEQLKSGTASVVCLLNNFYPREAKVQWKVDNALQSGNSQESVTEQDSKDSTYSLSSTLTLSKADYEKHKVYACEVTHQGLSSPVTKSFNRGEC

EC50 [5]: 2.4 nM and 3.1 nM
B3: scDb 3-43xCD3, CD3 arm (antibody)
chain: METDTLLLWVLLLWVPGSTGQVQLQQSGPGLVKPSQTLSLTCAISGDSVSSNRAAWNWIRQSPSRGLEWLGRTYYRSKWYNDYAQSLKSRITINPDTPKNQFSLQLNSVTPEDTAVYYCARDGQLGLDALDIWGQGTMVTVSSGGGGSDIQMTQSPSSLSASVGDRVTITCRASQDIRNYLNWYQQKPGKAPKLLIYYTSRLHSGVPSRFSGSGSGTDFTFTISSLQPEDIATYYCQQGNTLPWTFGQGTKLEIKRGGGGSGGGGSGGGGSQVQLVQSGAEVKKPGSSVKVSCKASGGTFSGYTMNWVRQAPGQGLEWMGLINPYKGVSTYNGKFKDRVTITADKSTSTAYMELSSLRSEDTAVYYCARSGYYGDSDWYFDVWGQGTLVTVSSGGGGSQAGLTQPPAVSVAPGQTASITCGRDNIGSRSVHWYQQKPGQAPVLVVYDDSDRPAGIPERFSGSNYENTATLTISRVEAGDEADYYCQVWGITSDHVVFGGGTKLTVLAAAHHHHHH

EC50 [5]: 5.2 nM
B4: scFv3-43-scDb3-43xhuU3-scFv3-43, CD3 arm (antibody)
chain: METDTLLLWVLLLWVPGSTGQVQLQQSGPGLVKPSQTLSLTCAISGDSVSSNRAAWNWIRQSPSRGLEWLGRTYYRSKWYNDYAQSLKSRITINPDTPKNQFSLQLNSVTPEDTAVYYCARDGQLGLDALDIWGQGTMVTVSSGGGGSDIQMTQSPSSLSASVGDRVTITCRASQDIRNYLNWYQQKPGKAPKLLIYYTSRLHSGVPSRFSGSGSGTDFTFTISSLQPEDIATYYCQQGNTLPWTFGQGTKLEIKRGGGGSGGGGSGGGGSQVQLVQSGAEVKKPGSSVKVSCKASGGTFSGYTMNWVRQAPGQGLEWMGLINPYKGVSTYNGKFKDRVTITADKSTSTAYMELSSLRSEDTAVYYCARSGYYGDSDWYFDVWGQGTLVTVSSGGGGSQAGLTQPPAVSVAPGQTASITCGRDNIGSRSVHWYQQKPGQAPVLVVYDDSDRPAGIPERFSGSNYENTATLTISRVEAGDEADYYCQVWGITSDHVVFGGGTKLTVLAAAGGSGGGGSGGGTQVQLQQSGPGLVKPSQTLSLTCAISGDSVSSNRAAWNWIRQSPSRGLEWLGRTYYRSKWYNDYAQSLKSRITINPDTPKNQFSLQLNSVTPEDTAVYYCARDGQLGLDALDIWGQGTMVTVSSGGGGSGGGGSGGGGSQAGLTQPPAVSVAPGQTASITCGRDNIGSRSVHWYQQKPGQAPVLVVYDDSDRPAGIPERFSGSNYENTATLTISRVEAGDEADYYCQVWGITSDHVVFGGGTKLTVLGSL

EC50 [6]: 1.9 nM
B5: scDb 4D5x3-43-Fc, HER3 arm (antibody, V domains shown)
VH: QVQLQQSGPGLVKPSQTLSLTCAISGDSVSSNRAAWNWIRQSPSRGLEWLGRTYYRSKWYNDYAQSLKSRITINPDTPKNQFSLQLNSVTPEDTAVYYCARDGQLGLDALDIWGQGTMVTVSS
VL: QAGLTQPPAVSVAPGQTASITCGRDNIGSRSVHWYQQKPGQAPVLVVYDDSDRPAGIPERFSGSNYENTATLTISRVEAGDEADYYCQVWGITSDHVVFGGGTKLTVLG

EC50 [6]: 0.24 nM
B6: scDb 2-35x3-43-Fc, HER3 arm (antibody, V domains shown)
VH: QVQLQQSGPGLVKPSQTLSLTCAISGDSVSSNRAAWNWIRQSPSRGLEWLGRTYYRSKWYNDYAQSLKSRITINPDTPKNQFSLQLNSVTPEDTAVYYCARDGQLGLDALDIWGQGTMVTVSS
VL: QAGLTQPPAVSVAPGQTASITCGRDNIGSRSVHWYQQKPGQAPVLVVYDDSDRPAGIPERFSGSNYENTATLTISRVEAGDEADYYCQVWGITSDHVVFGGGTKLTVLG

EC50 [7]: 0.24 nM
B7: scDb hu225x3-43-Fc, HER3 arm (antibody, V domains shown)
VH: QVQLQQSGPGLVKPSQTLSLTCAISGDSVSSNRAAWNWIRQSPSRGLEWLGRTYYRSKWYNDYAQSLKSRITINPDTPKNQFSLQLNSVTPEDTAVYYCARDGQLGLDALDIWGQGTMVTVSS
VL: QAGLTQPPAVSVAPGQTASITCGRDNIGSRSVHWYQQKPGQAPVLVVYDDSDRPAGIPERFSGSNYENTATLTISRVEAGDEADYYCQVWGITSDHVVFGGGTKLTVLG

EC50 [8]: 0.0316 nM and 0.0314 nM
EC50 [9]: 0.81 nM
B8: scDb 3-43xCD3-scFv 3-43, HER3 arms (antibody, V domains shown)
VH: QVQLQQSGPGLVKPSQTLSLTCAISGDSVSSNRAAWNWIRQSPSRGLEWLGRTYYRSKWYNDYAQSLKSRITINPDTPKNQFSLQLNSVTPEDTAVYYCARDGQLGLDALDIWGQGTMVTVSS
VL: QAGLTQPPAVSVAPGQTASITCGRDNIGSRSVHWYQQKPGQAPVLVVYDDSDRPAGIPERFSGSNYENTATLTISRVEAGDEADYYCQVWGITSDHVVFGGGTKLTVLG

EC50 [9]: 0.93 nM
B9: scDb4D5x3-43-LL, HER3 arm (antibody, V domains shown)
VH: QVQLQQSGPGLVKPSQTLSLTCAISGDSVSSNRAAWNWIRQSPSRGLEWLGRTYYRSKWYNDYAQSLKSRITINPDTPKNQFSLQLNSVTPEDTAVYYCARDGQLGLDALDIWGQGTMVTVSS
VL: QAGLTQPPAVSVAPGQTASITCGRDNIGSRSVHWYQQKPGQAPVLVVYDDSDRPAGIPERFSGSNYENTATLTISRVEAGDEADYYCQVWGITSDHVVFGGGTKLTVLG

EC50 [8]: 1.1 nM
EC50 [10]: 1.1 nM
EC50 [9]: 3.3 nM and 4.87 nM
B10: scDb 3-43xCD3, HER3 arm (antibody, V domains shown)
VH: QVQLQQSGPGLVKPSQTLSLTCAISGDSVSSNRAAWNWIRQSPSRGLEWLGRTYYRSKWYNDYAQSLKSRITINPDTPKNQFSLQLNSVTPEDTAVYYCARDGQLGLDALDIWGQGTMVTVSS
VL: QAGLTQPPAVSVAPGQTASITCGRDNIGSRSVHWYQQKPGQAPVLVVYDDSDRPAGIPERFSGSNYENTATLTISRVEAGDEADYYCQVWGITSDHVVFGGGTKLTVLG

EC50 [8]: 0.0173 nM
B11: scFv3-43-scDb3-43xhuU3-scFv3-43, HER3 arms (antibody, V domains shown)
VH: QVQLQQSGPGLVKPSQTLSLTCAISGDSVSSNRAAWNWIRQSPSRGLEWLGRTYYRSKWYNDYAQSLKSRITINPDTPKNQFSLQLNSVTPEDTAVYYCARDGQLGLDALDIWGQGTMVTVSS
VL: QAGLTQPPAVSVAPGQTASITCGRDNIGSRSVHWYQQKPGQAPVLVVYDDSDRPAGIPERFSGSNYENTATLTISRVEAGDEADYYCQVWGITSDHVVFGGGTKLTVLG

EC50 [11]: 0.047 nM
EC50 [12]: 0.26 nM
EC50 [13]: 0.054 nM
B12: Db3-43xhu225-Ig, HER3 arm (antibody, V domains shown)
VH: QVQLQQSGPGLVKPSQTLSLTCAISGDSVSSNRAAWNWIRQSPSRGLEWLGRTYYRSKWYNDYAQSLKSRITINPDTPKNQFSLQLNSVTPEDTAVYYCARDGQLGLDALDIWGQGTMVTVSS
VL: QAGLTQPPAVSVAPGQTASITCGRDNIGSRSVHWYQQKPGQAPVLVVYDDSDRPAGIPERFSGSNYENTATLTISRVEAGDEADYYCQVWGITSDHVVFGGGTKLTVLG

EC50 [6]: 0.2 nM
B13: scDbhu225x3-43-Fc (GGGGS), HER3 arm (antibody, V domains shown)
VH: QVQLQQSGPGLVKPSQTLSLTCAISGDSVSSNRAAWNWIRQSPSRGLEWLGRTYYRSKWYNDYAQSLKSRITINPDTPKNQFSLQLNSVTPEDTAVYYCARDGQLGLDALDIWGQGTMVTVSS
VL: QAGLTQPPAVSVAPGQTASITCGRDNIGSRSVHWYQQKPGQAPVLVVYDDSDRPAGIPERFSGSNYENTATLTISRVEAGDEADYYCQVWGITSDHVVFGGGTKLTVLG
